This passage reports percent reduction of NEK7 bound to Flag-NLRP3 (cytochrome c against BSA) results from article PMC5193325.

This assay has as its target Flag-NLRP3 (UniProt Q96P20). Put plainly: pull-down; competition: purified cytochrome c (100 ng) or BSA added to Flag-NLRP3 immunoprecipitates with HA-NEK7 lysate, 1 hour at room temperature; NEK7 left on the beads read by immunoblot, ImageJ. (In general: Immunoblotting shows a protein as a band on a membrane.)

Flag-NLRP3, sequence (Q96P20 whole entry): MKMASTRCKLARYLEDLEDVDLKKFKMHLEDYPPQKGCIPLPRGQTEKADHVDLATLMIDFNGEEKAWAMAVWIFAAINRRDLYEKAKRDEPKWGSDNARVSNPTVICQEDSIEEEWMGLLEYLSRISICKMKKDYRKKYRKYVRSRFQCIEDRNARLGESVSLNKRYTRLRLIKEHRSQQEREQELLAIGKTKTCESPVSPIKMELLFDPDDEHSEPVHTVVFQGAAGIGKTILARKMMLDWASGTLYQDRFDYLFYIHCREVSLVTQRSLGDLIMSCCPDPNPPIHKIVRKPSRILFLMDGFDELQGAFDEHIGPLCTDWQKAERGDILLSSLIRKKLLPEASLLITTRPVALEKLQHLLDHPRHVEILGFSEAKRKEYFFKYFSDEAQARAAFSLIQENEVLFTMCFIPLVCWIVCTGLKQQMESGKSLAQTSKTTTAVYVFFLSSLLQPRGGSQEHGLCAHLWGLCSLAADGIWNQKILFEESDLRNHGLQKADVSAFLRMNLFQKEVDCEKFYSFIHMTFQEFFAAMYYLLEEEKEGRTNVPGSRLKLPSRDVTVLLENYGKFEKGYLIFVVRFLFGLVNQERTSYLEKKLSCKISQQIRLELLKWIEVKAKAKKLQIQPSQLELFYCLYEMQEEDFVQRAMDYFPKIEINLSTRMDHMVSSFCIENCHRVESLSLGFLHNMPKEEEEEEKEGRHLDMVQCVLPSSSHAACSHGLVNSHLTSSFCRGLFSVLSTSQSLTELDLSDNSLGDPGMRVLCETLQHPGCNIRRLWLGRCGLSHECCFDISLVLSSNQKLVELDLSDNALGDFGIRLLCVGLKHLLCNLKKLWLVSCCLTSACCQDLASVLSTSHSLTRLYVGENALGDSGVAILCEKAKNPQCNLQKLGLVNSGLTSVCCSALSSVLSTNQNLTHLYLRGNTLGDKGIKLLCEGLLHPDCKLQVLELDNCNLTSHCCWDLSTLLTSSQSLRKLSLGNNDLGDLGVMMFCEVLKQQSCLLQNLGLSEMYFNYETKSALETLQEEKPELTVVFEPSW

The substance “Purified cytochrome c protein (Sigma-Aldrich) (from UniProt P99999 1-105) (natural protein)” yielded a percent reduction of NEK7 bound to Flag-NLRP3 (cytochrome c against BSA) of 70%.
